Data: the DeepSol protein solubility set

test: soluble on expression in E. coli; label from the status in PepcDB or PDB records

| Sequence | soluble on expression in E. coli |
| --- | --- |
| MGSDKIHHHHHHMLNTIGERQKQLLKLLRGSRPGLSVDELSKGLEITRNAVRQHLSSLEGAGLVTAGNTRPSGGGRPQQLYVLTELGKESFPRQYSWLAQLVLASVRREEGVENMGKRLSEIGAGIAEQIRGQYPDLNTKEEKIDKLTEVMDQLGYNAKSATLPNGEKVIEADNCVFHQMAAKDMEICHLDRGLMETFTDSKVEQHECMARGGELCRFRFVSKKE | not soluble |
| MGSDKIHHHHHHMPKRFEWLFYAFIAFALYSCNGSSRGKGTEVETVSIDTADFNFPVRFEYAKGIQTVNHTGYKTVYIFHPDKPDTMAVYILYPRDSKRPVARHPKALYIPVPARTIACLSTTQIGSLPLLDQTDKLVGCINLKNICNADIRNRIKKGYVQEIGTGMTKNIEQIAGLRPEILLQDLFHVSDKDEELIASGINTVLYNEWKERDLLGRAEWMKLTAMLLSCNRRAHEVFEQIESEYAEARKLVAEKTDTIAIMYGQDYNGTWYLPGEYSYSTAMFRDARVSFDYAAGKVSSQPCSFEYIFSRHRHAEIWICTMMGNIKTMDEFLALNERYRHFDATQTGKVYIDRKRVNENGGNDYWESGLYRPDLLLKDIIKITRPELLPEYETSYWIELKRP | not soluble |
| MGHHHHHHSHMPASLALLQPRAMMKTLSSGNCTLSVPAKNSYRMVVLGASRVGKSSIVSRFLNGRFEDQYTPTIEDFHRKVYNIRGDMYQLDILDTSGNHPFPAMRRLSILTGDVFILVFSLDNRESFDEVKRLQKQILEVKSCLKNKTKEAAELPMVICGNKNDHGELCRQVPTTEAELLVSGDENCAYFEVSAKKNTNVDEMFYVLFSMAKLPHEMSPALHRKISVQYGDAFHPRPFCMRRVKEMDAYGMVSPFARRPSVNSDLKYIKAKVLREGQARERDKCTIQ | not soluble |
| SNAMVEAIIFDMDGVLFDTEKYYYDRRASFLGQKGISIDHLPPSFFIGGNTKQVWENILRDEYDKWDVSTLQEEYNTYKQNNPLPYKELIFPDVLKVLNEVKSQGLEIGLASSSVKADIFRALEENRLQGFFDIVLSGEEFKESKPNPEIYLTALKQLNVQASRALIIEDSEKGIAAGVAADVEVWAIRDNEFGMDQSAAKGLLDSLTDVLDLI | soluble |
| MGSDKIHHHHHHMATVLIVGRPNVGKSTLFNKLVKKKKAIVEDEEGVTRDPVQDTVEWYGKTFKLVDTCGVFDNPQDIISQKMKEVTLNMIREADLVLFVVDGKRGITKEDESLADFLRKSTVDTILVANKAENLREFEREVKPELYSLGFGEPIPVSAEHNINLDTLLETIIKKLEEKGLDLESKPEITDAIKVAIVGRPNVGKSTLFNAILNKERALVSPIPGTTRDPVDDEVFIDGRKYVFVDTAGLRRKSRVEPRTVEKYSNYRVVDSIEKADVVVIVLDATQGITRQDQRIAGLVERRGRASVVVFNKWDLVEHREKRYDEFTKLFREKLYFIDYSPLIFTSADKGWNIDRVIDAINLAYASYTTKVPSSAINSALQKVLAFTNLPRGLKIFFGLQVDIKPPTFLFFVNSIEKVKNPQKIFLRKLIRDYVFPFEGSPIFLKFKRSR | not soluble |
| MPSNIRESDASCLEMIRSIIRSTADDNSKWVEIFVDFENAQPTDEEREIYNMAEEVLNDCDLVLADVSSYGNGCYAERNQLKNDSDTQALKVLMTKLEPFVARTCSYYEHVAKIEKIVPIILWELSSGPLPLEEQLANKQSIAKQFARLIGFVLDFDVVKMRTAQITNDYSYYRRAKHIVYQDFEDQGVPELPQVQMFLCEGNPMLKALCNGVDSYMQTHQSLPINNTTDVFVTIINVCRFMLANDECLARLTDSSKHLCCRVMTGLVILFDHVDQNGAFVSNSSIDMRDVVRLIKLNTTPEQSDCLLAGLRFTTKHYNDSSTPKSLRHLIEVK | soluble |
| SLDRLYAKAMKSKYTKLLLENFLLSPYEMTDPAIMAGLQKNVYPKYDELKTLRGLEGVKKHLSYVREKQEPYSKGNIAKYLKKAIEQYLPTVKRQDID | soluble |
| MGSDKIHHHHHHMSNPAYTAMWEKLNLDIPAHDGLLEVLGKFYGDIYMSQQGRLQGMEYLDFVLSEVHGLRIQELQQAKEQGKKIIGTFCVFVPEEITLAAGAVHVGLCSGADAGTEEAEKLVPRNTCALIKSFIGFKLARLCPFTESCDLVVGETTCDGKKKAYEAFAEHVPMHVMEVPNTKSDAARDLFKTEVLRYMQALQQLTGTAITPQALASGIRAVNAKRRALQRLSALRSADPAPISGRDALLINQVSFYDDPERFTHSINALCDQMEERIARKEGIAPAGTPRLLLSGCPMAVPNWKLPYIMESSGAVIVGEESCIGTRNTRDLVDESQETLDGMIDALVDRYMKIDCACFTPNTERLHNVTAMAQELKADGIVHYALKFCQPYAHEAFKIEKAAREKDIPVLSVETDYSMEDAEQLKTRVEAFVEMVRG | not soluble |
| MSLNKAVLHDHLDGGLRAKTAKELAIKDSYKPLIEIEDIESFFNRESSTSLEDYLEAFVHTTALMSNYDNLERIAFEAAEDMMHFCGITLYESRYAPLYSVNNNLLIKDVLHAINSGFKQAENMYGIKSGLILCGMRNDKDNVSQVSEIAIDFKDQIIGFDIAMGPEYNFLPSLFADEFNKLKNNGINLTIHAGEGDGVNSIQDALDNGAKRIGHGVRIIEDIDTSSKKLGKTAEYVRNKQVPLMEVCITSNIHTNMYEEYNKHPIKDLIDLEFNVSINTDNRLMSNTSMKKEIDIAKNLGINNIDRILENSASYSFLNDFEGHHHHHH | soluble |
| AVGNATQPLLVVEDSDEDFSTFQRLLQREGVVNPIYRCITGDQALDFLYQTGSYCNPDIAPRPAVILLDLNLPGTDGREVLQEIKQDEVLKKIPVVIMTTSSNPKDIEICYSYSISSYIVKPLEIDRLTETVQTFIKYWLDIVVLPEMG | soluble |
| MFEFKHIKAFDRAFADNPGPMVVFATPGMLHAGQSLQIFRKWAGNEKNMVIMPGYCVQGTVGHKILSGQRKLEMEGRQVLEVKMQVEYMSFSAHADAKGIMQLVGQAEPESVLLVHGEAKKMEFLKQKIEQELRVNCYMPANGETVTLPTSPSIPVGISLGLLKREMAQGLLPEAKKPRLLHGTLIMKDSNFRLVSSEQALKELGLAEHQLRFTCRVHLHDTRKEQETALRVYSHLKSVLKDHCVQHLPDGSVTVESVLLQAAAPSEDPGTKVLLVSWTYQDEELGSFLTSLLKKGLPQAPS | soluble |
| MGSDKIHHHHHHMVSMIKTAQGYSSELTRDQSELTQFWSQVQQESLAIEPGITLAYGFIRHEDNRRAIVISNGRVESYLKYQELIYDCYQQGFSVYALDHRGQGLSSRLTTNPHQGHVEHFSDYVDDFKVFIERVVKPERHKELFLVGHSMGGAIATHYIHQDPTTFNAAVLSAPMYGIILPLPTVVIKQLATKMINTQPVIGSHLVATNYIIGGRDYQAISFKLNQLTHSQVRYQHYRDLYQQQPQCQLGSPTNQWLAEAIDAAKASIDMARGSPIPLLILQAGKDKIVCNQAQNKALAGLCQRIIIEGAFHEVFIETDKLRDKALKALFDFINQHSEII | not soluble |
| MGSDKIHHHHHHMSTPSPHCALCGIALGERLCRDSEGKSPAFCPTQNFSEIKEENSALYEGETKRFAKNAAIQEASCYEGREQGYAHLRPAKPRIEEIIEFAQKMGYQKLGLAFCMGLRNEAKAVELLLQKRGFEVVSVICKVGNSDKSTLGIDEEDKLIPHTPEAMCDPLLQARLLNESQTDFNIMLGLCVGHDSLFLKASEALCTVFAVKDRLLGHNPLAAIYTLESYYRSLKEG | not soluble |
| METLHTQEDIIKMLDSLLRPAEPFWNEFYANREKDVPFFENVPDENLVSYIQKKRVSKGKVLELGCGPGRNAIYLANEGFDVTAVDVSIEGINWAKERALAKGVEIEFICDSIFNLEVQNEFDFVYDSGCLHHIPPHRRVNYVDLIKNALKSGGYFGLTCFAAGDLDERNGSEITDWDVYRGWSLQGGLAYSEEKLREIFKGFEVIEIRKMEQIEQPNTMFGESFLWTALFKKNLEHHHHHH | not soluble |
| MGSDKIHHHHHHMKKVLVIRNDKLGDFMLAWPAFAMLKASDPSLKLTALVPTYTAEIARACPYLDEVIIDVPKGDKAAFQRLVNDIKAQRFDAMISFFSNTHNAKLAWKCRIPYRLAPATKWVQFFYNHRLVQRRSQSAKPEFAYNLDLARRFLQDQSIAVVEPRPPYLSFPKSAVDFQREFLCLQLNVDSSKKWIFVHSGSGGSANNLSLAQYAALIRGLLAQFDAYVILTAGPNESEKAHELAGLVQDARVVVYDKNKGLVDFAQSLACADLFIAGSTGPLHLSGALNVPTIGFYPSRRSATPLRWQPINDEAKHLAFCPSNDKASQTDLSKISIEEKLAKMIRFITKVWHAADK | not soluble |
| IAAGGSHVEAAPQEEWKKHFIHTGELGSAEFASVMSHTTSAMKSVFEQVNAPYSGMDPKALEDAINAVDLDNKNAPLKSVIDDVAELVAKNAIFTQHPDCIAHLHTPPLMPAVAAEAMIAALNQSMDSWDQASSATYVEQKVVNWLCDKYDLSEKADGIFTSGGTQSNQMGLMLARDWIADKLSGHSIQKLGLPDYADKLRIVCSKKSHFTVQKSASWMGLGEKAVMTVDANADGTMDITKLDEVIAQAKAEGLIPFAIVGTAGTTDHGAIDDLDFIADMAVKHDMWMHVDGAYGGALILSSHKSRLKGVERAHSISVDFHKLFYQTISCGALLVNDKSNFKFLLHHADYLNREHDELPNLVDKSIATTKRFDALKVFMTMQNVGPKALGDMYDHLLAQTLEVADMIRTNDQFELLAEPSLSTVLFRATHETADLDELNKALRLEALTRGIAVLGETIVDGKTALKFTILNPCLTTSDFESLLSKINMLAVELV | soluble |
| MENWYPCIICGIARYGHDVIATPRLTSDARVNQWLNLIGKPALNRILATNKNPTLNTFICIEHFEPEELIEPKKRRMKPIKTTRREMAIYENYFRDHGYFETQKSDVNRKKSMKLTSISCSQCSESVERDGKFAKIDMVDHAKLHMELGDCRCEKHKKIERIDRIDGENSDFQCSECAFILNAELEAVKEKAEFCFPMFQFEKSKFSNSTLEPRMKPEYIESRPFWNSEEYDPVFLDSDVKFDLIEDFEPPEPEPEPEQVDTELVKLEPIDGDYEHMEGCFSGFEQEESEQPSTSSAPRKLVQQRDRLLENLYQSNRHPSMEDINSLLDFSGDQRSIEAIFGFFERRRNDDNEMCTGDDACSSLRRYLEMELHPHGPLLEPPEIRCRMIKMFEKHWAKYRYVFRDLHSYMFSDALGLPPKYIRQRFEHFKERKNQQQKKQQEEADRAFRERHKPPKPHKPKPKSQYSKFEDETMEKAYMRTVKMNPSSYESRDLLESISISLRMSLIKVHEWFNNRKFVDSIIDQTWRTFSVNDEKRLHSTFLQNPQPTDEQYCYLAKELRAPVKEVMNWFKLKQMNEEREEEALKFEYKLDALTQESIDLFTTIVDGTTVVSVAKRRLLALELDVPYETLGRWIFYYRNREEKSRKSPKLEDDDDPPPRLAKMPRLEMNEPDNEEDIKLEPLDS | not soluble |
| EFGYSEMSAIGALIKALPESCALHLANSSVIRYAQLYQVPSTIEVCCNRGTSGIEGSLSTAVGYAAGSDKLNFIVIGDLSFFYDMNALWNINVRPNLRILLLNNGGGEIFHTLPGLDMSGTSHKYITAVHKTSAKGWAEERGFLYQRVENEEQLAEAMKTFTQPEAMEQPVLMEVFSN | not soluble |
